First the molecules themselves.
B1: Nanobody 087 (1E11-40GS-7C10) (VHH)
chain: EVQLVESGGGLVQPGGSLRLSCAASGSTRSVNPMAWFRQAPGRQREWVATISRSGYATYADSVKGRFTISGDNAKSSVYLQMNSLKPEDTAVYYCVTGTYWGQGTLVTVSSGGGGSGGGGSGGGGSGGGGSGGGGSGGGGSGGGGSGGGGSEVQLVESGGGLVQAGGSLRLSCTASGRTLSSYTMGWFRQAPGTEREFVAAMTRSGFNTYYADSVKGRFTISRDSTENTMALQMSSLKPEDTAVYYCTAGRGLTSYRADYWGQGTLVTVSS
B2: Nanobody 302 (5H01-40GS-7C10) (VHH)
chain: EVQLVESGGGLVQPGGSLRLSCAASGSTLDYYAIGWFRQAPGKEREGVSCTSNSGSTYYGGSVKGRFTASRDNAKNTVYLQMNSLRPEDTAVYYCVATIGCATLGGTLDVQRYYYRGQGTLVTVSSGGGGSGGGGSGGGGSGGGGSGGGGSGGGGSGGGGSGGGGSEVQLVESGGGLVQAGGSLRLSCTASGRTLSSYTMGWFRQAPGTEREFVAAMTRSGFNTYYADSVKGRFTISRDSTENTMALQMSSLKPEDTAVYYCTAGRGLTSYRADYWGQGTLVTVSS
B3: 4G10-40GS-7C10 (VHH)
chain: EVQLVESGGGLVQAGGSLRLSCVISEDGVRNYDMGWFRQAPGKEREFVATINWSGGSTNYADSVKGRFTVSRDNAKNTMYLQMDSLKPEDTAVYYCVAAGFYNNYLRTAPNDWNDWGQGTQVTVSSGGGGSGGGGSGGGGSGGGGSGGGGSGGGGSGGGGSGGGGSEVQLVESGGGLVQAGGSLRLSCTASGRTLSSYTMGWFRQAPGTEREFVAAMTRSGFNTYYADSVKGRFTISRDSTENTMALQMSSLKPEDTAVYYCTAGRGLTSYRADYWGQGTLVTVSS
B4: Nanobody 269 (6B05-40GS-13F07) (VHH)
chain: EVQLVESGGGLVQPGGSLRLSCAASGSIFSINTMGWYRQAPGKQRELVSTITSNLVPHYADSVQGRFTISRDNARNTVYLQMNSLKPQDTAHYYCNAWARSSGATPYTNYWGQGTLVTVSSGGGGSGGGGSGGGGSGGGGSGGGGSGGGGSGGGGSGGGGSEVQLVESGGGLVQAGGSLRLSCAASGNTFSTNPMYWYRQAEGKQRELVASISSRGITNYADSVRGRFSISRDNTKDTVYLQMNSLKPEDTAVYYCRLASLSSGTVYWGKGTLVTVSS
B5: Nanobody 283 (7E09-40GS-6B05) (VHH)
chain: EVQLVESGGGLVQAGGSLRLSCAASGRTFSSYIMGWFRQAPGKAREFVADITWGQRPYYADSVKGRFTISRDNAKNTVYLEMNSLKPEDTAVYYCAADLGVVIREEHAYWGQGTLVTVSSGGGGSGGGGSGGGGSGGGGSGGGGSGGGGSGGGGSGGGGSEVQLVESGGGLVQPGGSLRLSCAASGSIFSINTMGWYRQAPGKQRELVSTITSNLVPHYADSVQGRFTISRDNARNTVYLQMNSLKPQDTAHYYCNAWARSSGATPYTNYWGQGTLVTVSS
B6: Nanobody 308 (6B05-40GS-1E11) (VHH)
chain: EVQLVESGGGLVQPGGSLRLSCAASGSIFSINTMGWYRQAPGKQRELVSTITSNLVPHYADSVQGRFTISRDNARNTVYLQMNSLKPQDTAHYYCNAWARSSGATPYTNYWGQGTLVTVSSGGGGSGGGGSGGGGSGGGGSGGGGSGGGGSGGGGSGGGGSEVQLVESGGGLVQPGGSLRLSCAASGSTRSVNPMAWFRQAPGRQREWVATISRSGYATYADSVKGRFTISGDNAKSSVYLQMNSLKPEDTAVYYCVTGTYWGQGTLVTVSS
B7: Nanobody 264 (1E11-40GS-2B02) (VHH)
chain: EVQLVESGGGLVQPGGSLRLSCAASGSTRSVNPMAWFRQAPGRQREWVATISRSGYATYADSVKGRFTISGDNAKSSVYLQMNSLKPEDTAVYYCVTGTYWGQGTLVTVSSGGGGSGGGGSGGGGSGGGGSGGGGSGGGGSGGGGSGGGGSEVQLVESGGGLVQPGDSLRLSCAASGRILSINNMVWYRQAPGKQRELVAHITSSGSTGYADSVKGRFTISRDNAKNTFYLQMTNLNPEDTAVYYCNCWVSSDSNAPLKNYWGQGTLVTVSS
B8: Nanobody 064 (13F07-40GS-7C10) (VHH)
chain: EVQLVESGGGLVQAGGSLRLSCAASGNTFSTNPMYWYRQAEGKQRELVASISSRGITNYADSVRGRFSISRDNTKDTVYLQMNSLKPEDTAVYYCRLASLSSGTVYWGKGTLVTVSSGGGGSGGGGSGGGGSGGGGSGGGGSGGGGSGGGGSGGGGSEVQLVESGGGLVQAGGSLRLSCTASGRTLSSYTMGWFRQAPGTEREFVAAMTRSGFNTYYADSVKGRFTISRDSTENTMALQMSSLKPEDTAVYYCTAGRGLTSYRADYWGQGTLVTVSS
B9: Nanobody 262 (7E09-40GS-7C10) (VHH)
chain: EVQLVESGGGLVQAGGSLRLSCAASGRTFSSYIMGWFRQAPGKAREFVADITWGQRPYYADSVKGRFTISRDNAKNTVYLEMNSLKPEDTAVYYCAADLGVVIREEHAYWGQGTLVTVSSGGGGSGGGGSGGGGSGGGGSGGGGSGGGGSGGGGSGGGGSEVQLVESGGGLVQAGGSLRLSCTASGRTLSSYTMGWFRQAPGTEREFVAAMTRSGFNTYYADSVKGRFTISRDSTENTMALQMSSLKPEDTAVYYCTAGRGLTSYRADYWGQGTLVTVSS
B10: Nanobody 258 (13F07-40GS-14E10) (VHH)
chain: EVQLVESGGGLVQAGGSLRLSCAASGNTFSTNPMYWYRQAEGKQRELVASISSRGITNYADSVRGRFSISRDNTKDTVYLQMNSLKPEDTAVYYCRLASLSSGTVYWGKGTLVTVSSGGGGSGGGGSGGGGSGGGGSGGGGSGGGGSGGGGSGGGGSEVQLVESGGGLVQPGGSLRLSCAASGRIFSINTMGWYRQAPGKQRELVAGVTINAITNYADSVKGRFTISRDNAKNTVWLQMNSLKPEDTAVYYCHAWARSSGSAPYSQNWGQGTLVTVSS
B11: Nanobody 260 (1E11-40GS-2B10) (VHH)
chain: EVQLVESGGGLVQPGGSLRLSCAASGSTRSVNPMAWFRQAPGRQREWVATISRSGYATYADSVKGRFTISGDNAKSSVYLQMNSLKPEDTAVYYCVTGTYWGQGTLVTVSSGGGGSGGGGSGGGGSGGGGSGGGGSGGGGSGGGGSGGGGSEVQLVESGGGLVQPGGSLRLSCAASGSIFSINNMGWYRQAPGKQRELVTVVTSNLITTYADSVKGRFTISRDNAKNTVYLQMNSLKPEDTAVYYCNAWARSVGSVPYSQFWGQGTLVTVSS
B12: Nanobody 234 (7C10-40GS-5H01) (VHH)
chain: EVQLVESGGGLVQAGGSLRLSCTASGRTLSSYTMGWFRQAPGTEREFVAAMTRSGFNTYYADSVKGRFTISRDSTENTMALQMSSLKPEDTAVYYCTAGRGLTSYRADYWGQGTLVTVSSGGGGSGGGGSGGGGSGGGGSGGGGSGGGGSGGGGSGGGGSEVQLVESGGGLVQPGGSLRLSCAASGSTLDYYAIGWFRQAPGKEREGVSCTSNSGSTYYGGSVKGRFTASRDNAKNTVYLQMNSLRPEDTAVYYCVATIGCATLGGTLDVQRYYYRGQGTLVTVSS
B13: Fab 26.24 (Fab, V domains shown)
VH: EVQLVESGGGVVQPGRSLRLSCAASGFTFSNYPMHWVRQAPGKGLEWVAVISYDGSEKWYADSVKGRFTISRDNSKNTLYLEMNSLRPEDTAVYYCARNRGDIYYDFTYAMDIWGQGTTVTVSS
VL: DIQLTQSPSTLSASVGDSVTITCRASEGVDRWLAWYQQKPGRAPKLLIYDASTLQSGVPSRFSGSGSGTEFSLTISSLQPDDVATYYCQHFWGTPYTFGQGTKLEIKR
B14: Nanobody 272 (11B09-40GS-10C05) (VHH)
chain: EVQLVESGGGLVQAGGSLRLSCAASRLTFNHYNMGWFRQAPGKERERVAEVTWSGDKIYYVDSVKGRFTISRDNTPNPVYLYLQMNSLKPEDTAVYYCATAPRGLPYANGYWGQGTLVTVSSGGGGSGGGGSGGGGSGGGGSGGGGSGGGGSGGGGSGGGGSEVQLVESGGGLVQPGGSLRLSCAASGSIFSINTMGWYRQAPGKQRDLVASITMNQVPNYADSVQGRFTISRDNVRNTVHLQMNAVKPEDTADYFCNAWVRSSGASPYTNYWGQGTLVTVSS
B15: 3E10-40GS-2B10 (VHH)
chain: EVQLVESGGGLVQAGGSLRLSCTASGHTFSSYTMGWFRQAPGKEREFVAAMTRSGFNTHYSDSVKGRFTISRDNTSRDNTKITMALQMNSLKPEDTAVYYCTTGRGLTSYVANFWGQGTQVTVSSGGGGSGGGGSGGGGSGGGGSGGGGSGGGGSGGGGSGGGGSEVQLVESGGGLVQPGGSLRLSCAASGSIFSINNMGWYRQAPGKQRELVTVVTSNLITTYADSVKGRFTISRDNAKNTVYLQMNSLKPEDTAVYYCNAWARSVGSVPYSQFWGQGTLVTVSS
B16: Nanobody 083 (7C10-40GS-11B09) (VHH)
chain: EVQLVESGGGLVQAGGSLRLSCTASGRTLSSYTMGWFRQAPGTEREFVAAMTRSGFNTYYADSVKGRFTISRDSTENTMALQMSSLKPEDTAVYYCTAGRGLTSYRADYWGQGTLVTVSSGGGGSGGGGSGGGGSGGGGSGGGGSGGGGSGGGGSGGGGSEVQLVESGGGLVQAGGSLRLSCAASRLTFNHYNMGWFRQAPGKERERVAEVTWSGDKIYYVDSVKGRFTISRDNTPNPVYLYLQMNSLKPEDTAVYYCATAPRGLPYANGYWGQGTLVTVSS

This experiment concerns the target PcrV of P. aeruginosa strain PA103 (on TTSS-induced bacteria) (Pseudomonas aeruginosa strain PA103). Briefly: cell-based or functional assay.
As to B1, the % inhibition in P3X63 cytotoxicity assay, extract 1/150 came to 49%.

B2: the % inhibition in P3X63 cytotoxicity assay, extract 1/150 was 68%.

Consider B3, for which the % inhibition in P3X63 cytotoxicity assay, extract 1/150 turned out to be 81%.

With B4, the % inhibition in P3X63 cytotoxicity assay, extract 1/150 came out at 41%; the Efficacy (%), P3X63 cytotoxicity, MOI 12 was 100%; the IC50 value (M), P3X63 cytotoxicity, MOI 12 amounted to 8.2e-10 M; the Ratio (IC50 Fab 13.37/IC50 Nanobody), A549 cytotoxicity was determined as 1 fold.

As to B5, the % inhibition in P3X63 cytotoxicity assay, extract 1/150 was 45%; the Efficacy (%), P3X63 cytotoxicity, MOI 12 was determined as 100%; the IC50 value (M), P3X63 cytotoxicity, MOI 12 was found to be 7.6e-11 M; the Ratio (IC50 Fab 13.37/IC50 Nanobody), A549 cytotoxicity was 1 fold.

Regarding B6, the % inhibition in P3X63 cytotoxicity assay, extract 1/150 is 57%; the Efficacy (%), P3X63 cytotoxicity, MOI 12 stood at 100%; the IC50 value (M), P3X63 cytotoxicity, MOI 12 was determined as 1.8e-10 M; the Ratio (IC50 Fab 13.37/IC50 Nanobody), A549 cytotoxicity amounted to 0.3 fold.

With B7, the % inhibition in P3X63 cytotoxicity assay, extract 1/150 is 47%.

B8: the % inhibition in P3X63 cytotoxicity assay, extract 1/150 stood at 74%.

As to B9, the % inhibition in P3X63 cytotoxicity assay, extract 1/150 was 48%.

As for B10, the % inhibition in P3X63 cytotoxicity assay, extract 1/150 was found to be 69%; the Efficacy (%), P3X63 cytotoxicity, MOI 12 came to 100%; the IC50 value (M), P3X63 cytotoxicity, MOI 12 amounted to 9e-11 M; the Ratio (IC50 Fab 13.37/IC50 Nanobody), A549 cytotoxicity was found to be 1 fold.

As for B11, the % inhibition in P3X63 cytotoxicity assay, extract 1/150 is 57%.

B12 returned a % inhibition in P3X63 cytotoxicity assay, extract 1/150 of 63%.

For B13, the % inhibition, P3X63 cytotoxicity assay, MOI 1.5 is 100%; the % inhibition, P3X63 cytotoxicity assay, MOI 4 was 100%; the IC50 (nM), P3X63 cytotoxicity assay, MOI 1.5 is 34 nM; the IC50 (nM), P3X63 cytotoxicity assay, MOI 4 came to 48 nM.

Molecule B14 had a % inhibition in P3X63 cytotoxicity assay, extract 1/150 of 66%.

B15 had a % inhibition in P3X63 cytotoxicity assay, extract 1/150 of 52%.

The molecule B16 registered a % inhibition in P3X63 cytotoxicity assay, extract 1/150 of 61%.

These data come from patent US20190055322A1.
